Measurements reported in PMC5007650, “Crystal structure of the two-subunit tRNA m^1A58 methyltransferase TRM6-TRM61 from Saccharomyces cerevisiae” (Scientific Reports, 2016).

Legend:
[1] = target: T1, TRM6 from Saccharomyces cerevisiae (S. cerevisiae, UniProt P41814 1-478); experiment: crystal structure; sitting-drop vapour diffusion at 293 K, 0.1 M HEPES pH 7.5, 2% MPD, 10% PEG 6000; apo TRM6-TRM61 and TRM6-TRM61 with SAM, each at 2.2 Å; heterotetramer from symmetry-related molecules; conditions: both partners purified
T1 construct: TRM6, non-catalytic subunit of the tRNA m1A58 methyltransferase, S. cerevisiae, full length; A selenomethionine derivative was used for phasing only; also called TRM6 subunit; source: bacteria, expression plasmid pETDuet-TRM6-TRM61, purified as the TRM6-TRM61 complex (Ni2+-NTA, Superdex 200)
T1 sequence (looked up): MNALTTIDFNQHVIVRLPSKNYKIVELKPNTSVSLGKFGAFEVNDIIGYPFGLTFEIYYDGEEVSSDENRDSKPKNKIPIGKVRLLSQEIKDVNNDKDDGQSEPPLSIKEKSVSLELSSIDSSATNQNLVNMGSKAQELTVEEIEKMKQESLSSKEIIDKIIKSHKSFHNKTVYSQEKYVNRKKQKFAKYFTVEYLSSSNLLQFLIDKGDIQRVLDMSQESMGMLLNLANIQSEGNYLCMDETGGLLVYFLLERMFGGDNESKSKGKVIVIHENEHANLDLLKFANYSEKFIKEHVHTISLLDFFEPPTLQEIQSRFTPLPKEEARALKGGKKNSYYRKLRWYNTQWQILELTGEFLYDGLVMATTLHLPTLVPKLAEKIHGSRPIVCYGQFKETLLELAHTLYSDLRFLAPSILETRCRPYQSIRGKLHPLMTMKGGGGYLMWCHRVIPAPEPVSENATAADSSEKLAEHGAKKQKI

[2] = target: the molecule itself; experiment: as above

| Binder | binding result [1] | binding result [2] |
| --- | --- | --- |
| TRM61 from Saccharomyces cerevisiae (enzyme, S. cerevisiae, UniProt P46959 1-383, looked up, TRM61, catalytic subunit of the tRNA m1A58 methyltransferase, S. cerevisiae, full length; also called TRM61 subunit; catalytic subunit; source: bacteria, expression plasmid pETDuet-TRM6-TRM61, purified as the TRM6-TRM61 complex (Ni2+-NTA, Superdex 200)) MSTNCFSGYKDLIKEGDLTLIWVSRDNIKPVRMHSEEVFNTRYGSFPHKDIIGKPYGSQIAIRTKGSNKFAFVHVLQPTPELWTLSLPHRTQIVYTPDSSYIMQRLNCSPHSRVIEAGTGSGSFSHAFARSVGHLFSFEFHHIRYEQALEEFKEHGLIDDNVTITHRDVCQGGFLIKKGDTTSYEFGNNETAASLNANVVFLDLPAPWDAIPHLDSVISVDEKVGLCCFSPCIEQVDKTLDVLEKYGWTDVEMVEIQGRQYESRRQMVRSLNDALERLRDIKRHKLQGVERRKRMFNNTIDSNDEKVGKRNEDGVPLTEKAKFNPFGKGSRIKEGDSNYKWKEVTKMEAEIKSHTSYLTFAFKVVNRSRDDEKVNEILRSTEK | binds |  |
| TRM6-TRM61 heterodimer from Saccharomyces cerevisiae (complex, S. cerevisiae, TRM6, S. cerevisiae, full length; as the chain of m1; TRM61, S. cerevisiae, full length; as the chain of m2; 1:1 heterodimer of TRM6 and TRM61 (the asymmetric unit of the crystal); two of them form the 2:2 heterotetramer; also called TRM6-TRM61 holoenzyme; TRM6-TRM61 complex; source: bacteria, expression plasmid pETDuet-TRM6-TRM61, purified (Ni2+-NTA, Superdex 200)) chain 1: MNALTTIDFNQHVIVRLPSKNYKIVELKPNTSVSLGKFGAFEVNDIIGYPFGLTFEIYYDGEEVSSDENRDSKPKNKIPIGKVRLLSQEIKDVNNDKDDGQSEPPLSIKEKSVSLELSSIDSSATNQNLVNMGSKAQELTVEEIEKMKQESLSSKEIIDKIIKSHKSFHNKTVYSQEKYVNRKKQKFAKYFTVEYLSSSNLLQFLIDKGDIQRVLDMSQESMGMLLNLANIQSEGNYLCMDETGGLLVYFLLERMFGGDNESKSKGKVIVIHENEHANLDLLKFANYSEKFIKEHVHTISLLDFFEPPTLQEIQSRFTPLPKEEARALKGGKKNSYYRKLRWYNTQWQILELTGEFLYDGLVMATTLHLPTLVPKLAEKIHGSRPIVCYGQFKETLLELAHTLYSDLRFLAPSILETRCRPYQSIRGKLHPLMTMKGGGGYLMWCHRVIPAPEPVSENATAADSSEKLAEHGAKKQKI chain 2: MSTNCFSGYKDLIKEGDLTLIWVSRDNIKPVRMHSEEVFNTRYGSFPHKDIIGKPYGSQIAIRTKGSNKFAFVHVLQPTPELWTLSLPHRTQIVYTPDSSYIMQRLNCSPHSRVIEAGTGSGSFSHAFARSVGHLFSFEFHHIRYEQALEEFKEHGLIDDNVTITHRDVCQGGFLIKKGDTTSYEFGNNETAASLNANVVFLDLPAPWDAIPHLDSVISVDEKVGLCCFSPCIEQVDKTLDVLEKYGWTDVEMVEIQGRQYESRRQMVRSLNDALERLRDIKRHKLQGVERRKRMFNNTIDSNDEKVGKRNEDGVPLTEKAKFNPFGKGSRIKEGDSNYKWKEVTKMEAEIKSHTSYLTFAFKVVNRSRDDEKVNEILRSTEK |  | binds |
